According to publication PMC8779334, “Synthesis, Physicochemical and Biological Study of Gallium-68- and Lutetium-177-Labeled VEGF-A165/NRP-1 Complex Inhibitors Based on Peptide A7R and Branched Peptidomimetic” (Pharmaceutics, 2022):
Read-outs that look alike come from different tables or passages of the source. Where a SMILES comes first, the peptide text is derived from it. Where no end group is shown, it is not given here. Side-chain parts run from the residue outwards. [ ]: non-standard residue; d: D form. The star is where a group is joined. DOTA = O=C(O)CN1CCN(CC(=O)O)CCN(CC(=O)*)CCN(CC(=O)O)CC1; hArg = N=C(N)NCCCC[C@H](N)C(=O)O; Dab = NCC[C@H](N)C(=O)O; Ahx = NCCCCCC(=O)O

Experiments:
[1] = type: physicochemical; conditions: pH 7.4
Method: The lipophilicity (L) of tested radiocompounds, defined as the decimal logarithm (logP) of the partition coefficient (P) of the compound between the two immiscible phases, was determined in the system PBS solution (aqueous phase, polar phase, pH 7.4) and n-octanol (organic, non-polar phase) according to the following formula: L=logP=logAo/Aw where Ao —organic phase radioactivity; Aw —aqueous phase radioactivity. Radioactivity of both phases, resulting from the concentration of the tested radiocompound in each of them, was determined by measuring the gamma radiation with a Wizard counter in three independent experiments. Before starting the research, both liquid phases were saturated with each other to avoid errors resulting from the mutual solubility of both liquids. The partition coefficient (P) result is shown as the mean ± SD. After the end of the experiment, we performed RP-HPLC analysis of the aqueous phase to confirm the tested radioconjugate remained intact during the experiment.

[2] = type: in vitro ADME; conditions: human, serum
Method: Stability studies of the ^68Ga-1, ^177Lu-1, ^68Ga-2, and ^177Lu-2 radioconjugates in human serum (HS) were performed according to the following procedure: into a vial containing 900 µL of HS we added 100 µL of the tested radioconjugate and incubated the mixture at 37 °C. After the specified incubation times (10 min–4.5 h for ^68Ga-radiocompounds and 10 min–4 days for ^177Lu-radiocompounds), we withdrew the aliquots, mixed with ethanol to precipitate the proteins, and centrifuged (14,000 rpm, 5–15 min) to separate the protein compounds from the supernatant. The gamma radioactivity of the obtained precipitate and supernatant was then measured using a Wizard detector. Using the formula below, the amount of radioconjugate remaining in the supernatant (and also bound by serum protein components) was calculated. ∑ liquid phase radioactivity/∑ liquid phase radioactivity+∑ percipitate radioactivity ×100% We also analyzed the supernatant at each time by RP-HPLC in System 3 with gamma detection for ^68Ga-1 and ^177Lu-1 and System 4 with gamma detection for ^68Ga-2 and ^177Lu-2 to check whether the studied radiocompound remained unchanged during the experiment.

[3] = tested on: VEGF-A165/NRP-1 complex; conditions: read-out: IC50 (VEGF-A165 binding with NRP-1); cited from earlier work
[4] = cited from earlier work

| Compound | logP ± SD [1] | IC50 [3] [µM] | other results |
| --- | --- | --- | --- |
| CC(C)C[C@H](NC(=O)[C@H](Cc1c[nH]c2ccccc12)NC(=O)[C@@H](NC(=O)[C@H](C)NC(=O)CCCCCNC(=O)CN1CCN(CC(=O)O)CCN(CC(=O)O)CCN(CC(=O)O)CC1)[C@@H](C)O)C(=O)N1CCC[C@H]1C(=O)N1CCC[C@H]1C(=O)N[C@@H](CCCNC(=N)N)C(=O)O [^68Ga-1, [^68Ga]Ga-DOTA-Ahx-A7R, metal not drawn] ({DOTA-Ahx}-ATWLPPR-OH) | −3.92 ± 0.03 | – | – |
| N=C(N)NCCCC[C@H](N)C(=O)NCCCC[C@H](N)C(=O)N[C@@H](CCNC(=O)CCCCCNC(=O)CN1CCN(CC(=O)O)CCN(CC(=O)O)CCN(CC(=O)O)CC1)C(=O)N1CCC[C@H]1C(=O)N[C@@H](CCCNC(=N)N)C(=O)O [^68Ga-2, [^68Ga]Lys(hArg)-Dab(Ahx-DOTA-Ga)-Pro-Arg, metal not drawn] (H-K(hArg)[Dab]([Ahx-DOTA])PR-OH) | −4.57 ± 0.05 | – | – |
| CC(C)C[C@H](NC(=O)[C@H](Cc1c[nH]c2ccccc12)NC(=O)[C@@H](NC(=O)[C@H](C)NC(=O)CCCCCNC(=O)CN1CCN(CC(=O)O)CCN(CC(=O)O)CCN(CC(=O)O)CC1)[C@@H](C)O)C(=O)N1CCC[C@H]1C(=O)N1CCC[C@H]1C(=O)N[C@@H](CCCNC(=N)N)C(=O)O [^177Lu-1, [^177Lu]Lu-DOTA-Ahx-A7R, metal not drawn] ({DOTA-Ahx}-ATWLPPR-OH) | −3.40 ± 0.14 | – | radioconjugate remaining in HS sample (in words) ([2]; 96 h): still visible |
| N=C(N)NCCCC[C@H](N)C(=O)NCCCC[C@H](N)C(=O)N[C@@H](CCNC(=O)CCCCCNC(=O)CN1CCN(CC(=O)O)CCN(CC(=O)O)CCN(CC(=O)O)CC1)C(=O)N1CCC[C@H]1C(=O)N[C@@H](CCCNC(=N)N)C(=O)O [^177Lu-2, [^177Lu]Lys(hArg)-Dab(Ahx-DOTA-Lu)-Pro-Arg, metal not drawn] (H-K(hArg)[Dab]([Ahx-DOTA])PR-OH) | −3.75 ± 0.08 | – | radioconjugate remaining in HS sample (in words) ([2]; 24 h): only traces of radioconjugate were present |
| ATWLPPR [A7R] | – | 5.9 | – |
| Lys(hArg)-Dab-Pro-Arg | – | 0.2 | stability half-life in human serum [4]: ~48 h; half-life ([4]; peptidomimetic concentration 0.9 µmol/mL, UV/VIS detection): 41 h |
